Results published in the RNAGym collection of RNA variant scans (doi:10.7554/elife.90254).

B1: LINE1-full (parent)
chain: UACGUAGGUGGUUUUCCCCUGAUAGUGCUAAGGGGGCCUGGAAGUUUGGACUGGGCAGAGCUCAACACAGCGUGGCAAAGUGGCUGUGGCUAGACUGCCUCUCUGGAUUCCUCGUCACUCAGCAGGGCAUCUCUGAGAGAAAUGCC

Variants of: B1
Assay: self-cleavage, relative activity (ratio to wild type); higher = more cleavage; in vitro, sequencing; the parent is a self-cleaving ribozyme
Variant UACGGAGGUGGUCUUCCCCUGAUAGUGCUAAGGGGGCCUGGAAGUUUGGACUGGGCAGAGCUCAACACAGCGUGGCAAAGUGGCUGUGGCUAGACUGCCUCUCUGGAUUCCUCGUCACUCAGCAGGGCAUCUCUGAGAGAAAUGCC has a self-cleavage of 0.83.
With UACGUGGGUGGUUUUCCCCUGAUAGUGCUAAGGGGGCCUGGAAGUUUGGACUGGGCAGAGCUCAACACAGCGUGGCAAAGUGGCUGUGGCUAGACUGCCUCUCUGGAUUCCUCGUCACUCAGCAGGGCUUCUCUGAGAGAAAUGCC the self-cleavage was 0.6.
With UACGUGGGUGGUUUUCCCCUGAUAGUGCUAAGGGGGCCUGGAAGUUUGGACUGGGCAGAGCUCAACACAGCGUGGCAAAGUGGCUGUGGCUAGACUGCCUCUCUGGAUUCCUCGUCACUCAGCAGGGCGUCUCUGAGAGAAAUGCC the self-cleavage was 0.26.
UACGUGGGUGGUUUUCCCCUGAUAGUGCUAAGGGGGCCUGGAAGUUUGGACUGGGCAGAGCUCAGCACAGCGUGGCAAAGUGGCUGUGGCUAGACUGCCUCUCUGGAUUCCUCGUCACUCAGCAGGGCAUCUCUGAGAGAAAUGCC gave a self-cleavage of 0.09.
Variant UACGUCGGUGGUUUUCCCCUGAUAGUGCUAAGGGGGCCUGGAAGUUUGGACUGGGCAGAGCUCAACACAGCGUGGCAAAGUGGCGGUGGCUAGACUGCCUCUCUGGAUUCCUCGUCACUCAGCAGGGCAUCUCUGAGAGAAAUGCC has a self-cleavage of 0.46.
With UACGUCGGUGGUUUUCCCCUGAUAGUGCUAAGGGGGCCUGGAAGUUUGGACUGGGCAGAGCUCAACACAGCGUGGCAAAGUGGCUGUGGCUAGACUGCCUCUCUGGAUUCCUCGUCACUCAGCAGGGCAUCUCUGAGAGAAAUGCC the self-cleavage was 1.08.
With UACGUGGGUGGUUUUCCCCUGAUAGUGCUAAGGGGGCCUGGAAGUUUGGACUGGGCAGAGCUCAACACAGCGUGGCAAAGUGGCUGUGGCUAGACUGCCUCUCUGGAUUCCUCGUCACUCAGCAGGGCAUCUCUGAGAGAAAUGCC the self-cleavage was 0.91.
Variant UACGUCGGUGGUUUUCCCCUGGUAGUGCUAAGGGGGCCUGGAAGUUUGGACUGGGCAGAGCUCAACACAGCGUGGCAAAGUGGCUGUGGCUAGACUGCCUCUCUGGAUUCCUCGUCACUCAGCAGGGCAUCUCUGAGAGAAAUGCC has a self-cleavage of 0.46.
In the case of UACGUGGGUGGUUUUCCCCUGAUAGUGCUAAGGGGGCCUGGAAGUUUGGACUGGGCAGAGCUCAACACGGCGUGGCAAAGUGGCUGUGGCUAGACUGCCUCUCUGGAUUCCUCGUCACUCAGCAGGGCAUCUCUGAGAGAAAUGCC, the self-cleavage is reported as 0.32.
Variant UACGUGGGUGGUUUUCCCCUGAUAGUGCUAAGGGGGCCUGGAAGUUUGGACUGGGCAGAGCUCAACACUGCGUGGCAAAGUGGCUGUGGCUAGACUGCCUCUCUGGAUUCCUCGUCACUCAGCAGGGCAUCUCUGAGAGAAAUGCC has a self-cleavage of 0.22.
With UACGUGGGUGGUUUUCCCCUGAUAGUGCUAAGGGGGCCUGGAAGUUUGGACUGGGCAGAGCUCAACACAGCGUGGCAAAGUGGCUGUGGCUUGACUGCCUCUCUGGAUUCCUCGUCACUCAGCAGGGCAUCUCUGAGAGAAAUGCC the self-cleavage was 1.23.
In the case of UACGUGGGUGGUUUUCCCCUGAUAGUGCUAAGGGGGCCUGGAAGUUUGGACUGGGCAGAGCUCAACACAGCGUGGCAAAGUGGCUGUGGCUGGACUGCCUCUCUGGAUUCCUCGUCACUCAGCAGGGCAUCUCUGAGAGAAAUGCC, the self-cleavage is reported as 0.22.
Work on UACGUGGGUGGUUUUCCCCUGAUAGUGCUAAGGGGGCCUGGAAGUUUGGACUGGGCAGAGCUCAACACAGCGUGGCAAAGUGGCUGUGGCUAGACUGCCUCUCUGGGUUCCUCGUCACUCAGCAGGGCAUCUCUGAGAGAAAUGCC yielded a self-cleavage of 0.74.
UACGUGGGUGGUUUUCCCCUGAUAGUGCUAAGGGGGCCUGGAAGUUUGGGCUGGGCAGAGCUCAACACAGCGUGGCAAAGUGGCUGUGGCUAGACUGCCUCUCUGGAUUCCUCGUCACUCAGCAGGGCAUCUCUGAGAGAAAUGCC showed a self-cleavage of 0.77.
UACGUGGGUGGUUUUCCCCUGAUAGUGCUAAGGGGGCCUGGAAGUUUGGCCUGGGCAGAGCUCAACACAGCGUGGCAAAGUGGCUGUGGCUAGACUGCCUCUCUGGAUUCCUCGUCACUCAGCAGGGCAUCUCUGAGAGAAAUGCC gave a self-cleavage of 1.23.
UACGUGGGUGGUUUUCCCCUGAUAGUGCUAAGGGGGCCUGGAAGUUUGGUCUGGGCAGAGCUCAACACAGCGUGGCAAAGUGGCUGUGGCUAGACUGCCUCUCUGGAUUCCUCGUCACUCAGCAGGGCAUCUCUGAGAGAAAUGCC gave a self-cleavage of 0.51.
With UACGUCGGUGGUUUUCCCCUGAUAGUGCUAAGGGGGCCUGGAAGCUUGGACUGGGCAGAGCUCAACACAGCGUGGCAAAGUGGCUGUGGCUAGACUGCCUCUCUGGAUUCCUCGUCACUCAGCAGGGCAUCUCUGAGAGAAAUGCC the self-cleavage was 1.18.
For UACGUGGGUGGUUUUCCCCUGGUAGUGCUAAGGGGGCCUGGAAGUUUGGACUGGGCAGAGCUCAACACAGCGUGGCAAAGUGGCUGUGGCUAGACUGCCUCUCUGGAUUCCUCGUCACUCAGCAGGGCAUCUCUGAGAGAAAUGCC, the self-cleavage was 1.19.
In the case of UACGUGGGUGGUUUUCCCCUGAUAGUGCUAAGGGGGCCUGGAUGUUUGGACUGGGCAGAGCUCAACACAGCGUGGCAAAGUGGCUGUGGCUAGACUGCCUCUCUGGAUUCCUCGUCACUCAGCAGGGCAUCUCUGAGAGAAAUGCC, the self-cleavage is reported as 0.85.
With UACGUCGGUGGUUUUCCCCUGAUAGUGCUAAGGGAGCCUGGAAGUUUGGACUGGGCAGAGCUCAACACAGCGUGGCAAAGUGGCUGUGGCUAGACUGCCUCUCUGGAUUCCUCGUCACUCAGCAGGGCAUCUCUGAGAGAAAUGCC the self-cleavage was 1.5.
UACGUCGGUGGUUUUCCCCUGAUAGUGCUAAGGGGGCCUGGAAGUUUGGACUGGGCAGAGCUCAACACAGCGUGGCAAAGUGGCUGUGGCUAGACAGCCUCUCUGGAUUCCUCGUCACUCAGCAGGGCAUCUCUGAGAGAAAUGCC gave a self-cleavage of 0.17.
Variant UACGUGGGUGGUUUUCCCCUGAUAGUGCUAAGGGGGCCUGGAAGUUUGGACUGGGCAGAGCUCAACACAGCGUGGCAAGGUGGCUGUGGCUAGACUGCCUCUCUGGAUUCCUCGUCACUCAGCAGGGCAUCUCUGAGAGAAAUGCC has a self-cleavage of 0.8.
In the case of UACGGAGGUGGUUUUCCCCUGAUAGUGCUAAGGGGGCCUGGAAGUUUGGACUGGGCAGAGCUCAACACAGCGUGGCAAAGUGGCUGUGGCUAGACUGCCUCUCUGGAUUCCCCGUCACUCAGCAGGGCAUCUCUGAGAGAAAUGCC, the self-cleavage is reported as 0.51.
UACGUCGGUGGUUUUCCCCUGAUAGUGCUAAGGGGGCCUGGAAGUUUGGACUGGGCAGAGCUCAACACAGCGUGGCAAAGUGGCUGUGGCUAGACUGCCUCUCUGGAUUCCUCGUCACUCAGCUGGGCAUCUCUGAGAGAAAUGCC showed a self-cleavage of 1.13.
UACGUGGGUGGUUUUCCCCUGAUAGUGCUAUGGGGGCCUGGAAGUUUGGACUGGGCAGAGCUCAACACAGCGUGGCAAAGUGGCUGUGGCUAGACUGCCUCUCUGGAUUCCUCGUCACUCAGCAGGGCAUCUCUGAGAGAAAUGCC showed a self-cleavage of 1.01.
UACGUCGGUGGUUUUCCCCUGAUAGUGCUAAGGGGGCCUGGAAGUUUGGACUGGGCAGAGCUCAACACAGCGUGGCAAAGUGGCUGUGGCUAGACUGCCUCUCUGGAUUCCUCGUCACACAGCAGGGCAUCUCUGAGAGAAAUGCC showed a self-cleavage of 1.36.
With UACGUGGGUGGUUUUCCCCUGAUAGUGCUAAGGGGGCCUGGAAGUUUGGACUGGGCAGAGCUCAACACAGCGUGGCAAAGUGGCUGUGGCUAGACUGCCUCUCUGGAUUCCUCGUCACUCAGCAGGGCAUCUCUGAGAGGAAUGCC the self-cleavage was 0.69.
Variant UACGUGGGUGGUUUUCCCCUGAUAGUGCUAAGGGGGCCUGGAAGUUUGGACUGGGCAGAGCUCAACACAGCGUGGCAAAGUGGCUGUGGCUAGACUGCCUCUCUGGAUUCCUCGUCACUCAGCAGGGCAUCUCUGAGAGUAAUGCC has a self-cleavage of 0.77.
UACGUCGGUGGUUUUCCCCUGAUAGUGCUAAGGGGGCCUGGAAGUUUGGACUGGGCAGAGCUCAACACAGCGUGGCAAAGUGGCUGUGGCUAGACUGCCUCUCUGGAUUCCUCGACACUCAGCAGGGCAUCUCUGAGAGAAAUGCC showed a self-cleavage of 0.8.
Variant UACGUCGGUGGUUUUCCCCUGAUAGUGCUAUGGGGGCCUGGAAGUUUGGACUGGGCAGAGCUCAACACAGCGUGGCAAAGUGGCUGUGGCUAGACUGCCUCUCUGGAUUCCUCGUCACUCAGCAGGGCAUCUCUGAGAGAAAUGCC has a self-cleavage of 0.
In the case of UACGUGGGUGGUUUUCCCCUGAUAGUGCUAAGGGGGCCUGGAAGUUUGGACUGGGCAGAGCUCAACACAGCGUGGCAAAGUGGCUGUGGCUAGACUGCCUCUCUGGAUUCCUCGUCUCUCAGCAGGGCAUCUCUGAGAGAAAUGCC, the self-cleavage is reported as 2.04.
UACGUGGGUGGUUUUCCCCUGAUAGUGCUAAGGGGGCCUGGAAGUUUGGACUGGGCAGAGCUCAACACAGCGUGGCAAAGUGGCUGUGGCUAGACUGCCUCUCUGGAUUCCUCGUCGCUCAGCAGGGCAUCUCUGAGAGAAAUGCC showed a self-cleavage of 1.41.
Variant UACGGAGGUGGUUUUCCCCUGAUAGUGCUAAGGGGGCCUGGAAGUUUGGACUGGGCAGAGCUCAACACAGCGUGGCAAAGUGGCUGUGGCUAGACUGCCUCUCUGGAUUCCUCGUCACUCAGCAGGGCAUCCCUGAGAGAAAUGCC has a self-cleavage of 1.04.
UACGUGGGUGGUUUUCCCCUGAUAGUGCUAAGGGGGCCUGGAAGUUUGGACUGGGCAGAGCUCAACACAGCGUGGCAGAGUGGCUGUGGCUAGACUGCCUCUCUGGAUUCCUCGUCACUCAGCAGGGCAUCUCUGAGAGAAAUGCC showed a self-cleavage of 1.15.
UACGUGGGUGGUUUUCUCCUGAUAGUGCUAAGGGGGCCUGGAAGUUUGGACUGGGCAGAGCUCAACACAGCGUGGCAAAGUGGCUGUGGCUAGACUGCCUCUCUGGAUUCCUCGUCACUCAGCAGGGCAUCUCUGAGAGAAAUGCC showed a self-cleavage of 0.28.
For UACGUGGGUGGUUUUCCCCUGAUAGUGCUAAGGGGGCCUGGAAGUUUGGACUGGGCAGAGCUCGACACAGCGUGGCAAAGUGGCUGUGGCUAGACUGCCUCUCUGGAUUCCUCGUCACUCAGCAGGGCAUCUCUGAGAGAAAUGCC, the self-cleavage was 0.62.
With UACGUGGGUGGUUUUCCCCUGAUAGUGCUAAGGGGGCCUGGAAGUUUGGACUGGGCAGAGCUCAACACAGCGUGGCAAAGUGGCUGUGGCUAGACUGCCUCUCUGGAUUCCUCGUCACUCAGCAGGGCAUCUCUGAGAGAAGUGCC the self-cleavage was 1.01.
With UACGUGGGUGGUUUUCCCCUGAUAGUGCUAAGGGGGCCUGGAAGUUUGGACUGGGCAGAGCUCAACGCAGCGUGGCAAAGUGGCUGUGGCUAGACUGCCUCUCUGGAUUCCUCGUCACUCAGCAGGGCAUCUCUGAGAGAAAUGCC the self-cleavage was 0.39.
With UACGUGGGUGGUUUUCCCCUGAUAGUGCUAAGGGGGCCUGGAAGUUUGGACUGGGCAGAGCUCAACUCAGCGUGGCAAAGUGGCUGUGGCUAGACUGCCUCUCUGGAUUCCUCGUCACUCAGCAGGGCAUCUCUGAGAGAAAUGCC the self-cleavage was 0.68.
